The values that follow are results of earlier work, collected in PMC5167704.

As a reminder, the Kd is the concentration at which binding is half-saturated.

For this data set, the target named is C4BP SCR6-8 (Homo sapiens) (UniProt P04003).
UniProt P04003, sequence (P04003 363-540): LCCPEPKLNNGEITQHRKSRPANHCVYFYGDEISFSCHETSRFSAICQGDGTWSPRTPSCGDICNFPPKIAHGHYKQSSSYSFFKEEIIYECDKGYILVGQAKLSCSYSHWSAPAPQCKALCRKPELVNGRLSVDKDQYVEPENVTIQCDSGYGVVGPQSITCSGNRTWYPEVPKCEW

As to Ail (from UniProt Q56957), the equilibrium dissociation constant (Kd) was 0.76 nM.
